Experiment: soluble on expression in E. coli; label from the status in PepcDB or PDB records

Sequence | soluble on expression in E. coli
MGSDKIHHHHHHVAFSAKASLATAIGRSSYWFLHTFLKGGSSLPGQIANRIDPQVLRTLGQNYDVIVVTGTNGKTLTTSLIVKVLKKKYKEVLTNPTGSNMLQGITTAFLAQPKRGHGRGIAVLEVDEANVAPVAAQLKPKAFVLTNIFRDQMDRYGEFYTTYQKILDGVTRDPEAMVIANGDAPIFSSRKLPNPVTYYGFELTANGDHKAPPNTDGVLCPVCQHILHYHAQTYANLGNYFCPHCGFKRPALTHQITEVTQMTPQSSDFMIDDQPCHIDIGGMYNIYNALAAFAVGRAFGVTPTEISQAFAYDEKVFGRQEVIQLGKKKLTLILVKNPVGLNQVLSMIETAKQPFGFAMLLNANYADGIDTSWIWDGNFEELVASQKAASYLVGGERYKDIGLRLTVAGVPEKALVSKPALDDVISTLKRSQQDQLYVLATYTAMLQLRKKLSDGGYIKAGF | not soluble
MSLTPRDHTLILIDYQSQMAFATHSIDIPTLRNNAGLVASAAAGFGVSAILTTVAEKSFSGPMFDEVTAPFPDLRMLDRTSMNTWEDAAVIDRVNQIGKGRIVLAGLWTSVCIVGPALSALDQGFEVYVIADACGDISAEAHERAMQRMVQAGARPITSLQYLLELQRDWARTDTYELTTGIAAKLGGGYGLGIRYAKTMFGGHEGHHHHHH | soluble
MGSDKIHHHHHHMTARWRSANGRPAPTRVEVVSDSLTADDANRMASQGIAMLWQGDFHNARQILNAMDRRIGAGKKETAATPAEKFYRHRQSASHRARILGLLLIPLDPGPVVPLRRAPDIRQAAAGAYGDIGEPSVVSLHELVGAIGAHEWRRNGVYVDALEGRIHPHYGTFFPTRSEYVDLVAAAALPSDTLAFDVGTGTGVLAAVLARRGVRSVVATDNEPRAIACAAENFRNLGVQDRAEAVLTDMFPPGRAPLIVCNPPWIPATPHSSLDSAVYDPGSRMLFRFLNELSDHLEPGGEGWLVLSDLAEHLGLRSRGDLLAAIEAAGLKVVERLDTKPTHPKASDRDDPLFEARTAEVTSLWRLVPR | not soluble
GSSGSSGDKKAYFYHSSFQILNVEYTEALNSPATHEYRTLSERIEAMITDEFRGSSLKSEFIRTHVVKLRKEGTGVVADVVMKFRSSKRNNRKVMKTRIQSVLRRLSSSGNLEIAPSNEITSLTDQDT | soluble
MSLDAENRAFYKIFTLKNNNLCKNSTLLEKIFKNNVEEFDFSLVKQNLEHEKNCVITSTMNQTIFFENMNSKEMGNKAYSFFNQTVLNNKGNTSLEEQISDIFDRCVYMNAEKSSSYIKLLEQDYNQVDMFVSLIFIGPYRHNLILITPVTLHLTLIPKNVKNNSFKNLFSGDMHFNMVTMTHLTEGHHHHHH | soluble
MLETEHANTEVHELCRQMIARIEKYGTLEGFSDSDILEVLKTIKEILEPLPCLIEIIAPVVVFGDIHGQLGDLLQFTNEVGRPPDFQYLFLGDYVDRGPNSLEVTVWLFCMKILFSKKVHLLRGNHEVRRVNTMYGFKEEMMRKRNSHLWKVFNDVFAELSICASINRKILCMHGGISPKIESWDSLTGMTKPRVHGDCEHGLIVDLIWSDPNRKDDTIQFNKMRGISTLFGKSVVDNLCTTLAIDLIIRAHEMKEVYVFHLYLSSMKGHTFEFDNRLLTVFSAPYYSGHNSNLGSVATISKSLKLRIVTLKPNKGYDRSKLDKRTLHDFEKNFQPLDENPRKNISCQFNVPPNGQKMSPFLGEYSMFAHETQFCKKDNETPVKKPYSSNQDEDHSVLDMIRKTQKGYGVEVSLKDKVMSLESIRKKLGMTTSTTPPPPRTPSPDAPLAQSPPIPRSPPSSTENA | not soluble
MKNDVISPEFDENGRPLRRIRSFVRRQGRLTKGQEHALENYWPVMGVEFSEDMLDFPALFGREAPVTLEIGFGMGASLVAMAKDRPEQDFLGIEVHSPGVGACLASAHEEGLSNLRVMCHDAVEVLHKMIPDNSLRMVQLFFPDPWHKARHNKRRIVQVPFAELVKSKLQLGGVFHMATDWEPYAEHMLEVMSSIDGYKNLSESNDYVPRPASRPVTKFEQRGHRLGHGVWDLMFERVK | soluble
AIADELNSPLGERAQGASLAHVVWSDPQWLERYPLTFENVLTYFSRSPFYDPTCNNELVRMQMHPELQGEMLYYTQREEELLLGMQGVEYVPLCSSDAHELFIIRKQVRRSADEVHVTNLYYILYGQVYEAPAFSTVLLVRLRQSADFLVRSLGLLRQWLSKKEYGEPGATGHGHEDTLLLQLLRKAQQRNRQL | soluble
MSLIVDREELEYDGSQLRRAFAHERYGIKGRAVVVFRGPMDVRTEYTADAEDVGSPIRGNDVLHLLVDDPTRADPLVAGLLQRLLVVVTKEVIEKELSTDLDRDGDDLLHDGRKLTVSVFKPAGPGSLAHLGINVTTEGVPVPASSLRDLGYRGDPLDLGRRVAVEFVREITDVELDLTKIRWEGHHHHHH | soluble
MGSDKIHHHHHHVTALPYLIEPLVLPAAVDSPDAGAFREFGELSDALVLETWGNADRSSPQEARLQYWRDNPYTQLRLFFVWLDGRMVARSWIRFGIQENVHTAVLHVNVLAEFSGRGIGRALLRHAEELAAARGCTTLQTFTEHPADFDAGGAGVLKPETGTGGVPAAARGVRFALAAGYRLEQVERFSALELPLAGDTLAALETEALEKSGEQYELLHWTDRCPDGLAQQLAVLMSRMSTDTPVGALNYDEESWDVARVRHVEDTWQKAGLASLVAGARHRATGELAAYSVLQVSDAKPWLANQDDTLVASHHRGHRLGMLVKILNIRRLLAGYPGVERIITFNAAENDHMLAINVALGFHPEGYDGEWQKAL | not soluble
MGSDKIHHHHHHMKIDTLGVQAFVAIADGGSFRQAADTLHVTQTAITQRLRKLESFLGVALVERTTRRTTLTEIGRRFLPQARRLLNELSDALTEIRETGLSQRGDVTIACVPTVGVQYLPRILRAFSGHRPHDRVKILDHASASVLQAVLRREAEFGISIAGDQHPELVSVPLTHDPYVLVCRDDHPLAKRRRIRWAALQPHPLIFAGEVSGNRGLLDGALKTSGVSLHSFYEVQRSSTALGLVAEGLGAAVVPKLAVQKNAYPMIRTIELVEPSVSRTLVLVKRKAAQLSPAAQALYDMIVERATPGR | not soluble
MGSDKIHHHHHHVLIWWRGKFRRADEISLDFSLFEKSLQGAVYETLRTYSRAPFAAYKHYTRLKRSADFFNLPLSLSFDEFTKVLKAGADEFKQEVRIKVYLFPDSGEVLFVFSPLNIPDLETGVEVKISNVRRIPDLSTPPALKITGRTDIVLARREIVDCYDVILLGLNGQVCEGSFSNVFLVKEGKLITPSLDSGILDGITRENVIKLAKSLEIPVEERVVWVWELFEADEMFLTHTSAGVVPVRRLNEHSFFEEEPGPVTATLMENFEPFVLNLEENWVGI | soluble
MNGRSLIFSILFVFSELKCDDTDENDQHGTIYQFQAKNIDGKMVSMEKYRDKVVLFTNVASYCGYTDSNYNAFKELDGIYREKGFRVAAFPCNQFEKQEPETEGKILDFVKSSYTYAPDMYSKIEVNGQNTHPLWKFLKKERGSSLSADIPWNFSKFLVDKNGHVVGRYSHSVNPIDLEEEISRLLNS | not soluble
MYNVVSFNNEGVEHMKPTSEKSKEIRKKYKAPGASDEQLANSIKVASEFEYKNSSTFGWGGVYMVDRFQSMITGRAITNNTQKLLDAQALEEEASKANLKQ | not soluble
MRIVAVTDIHGNMASTVALANILKKIEAELLLIAGDITHFSGGEIAKQILEPLLKLGVRVLAVMGNCDGKDVPKVLDELGINVHNARVEVKKVGVVGFGGSSVTPFSTIWEFSEEEIYSSLKRNYRSGDIVLTHAPPYRTRIDKTFSGIHAGSKGLRKFIEEEQPPICICGHIHEARGIDKIGETLVVNPGPLSRRYYAVIDSETWEVKLERLLEHHHHHH | soluble
SLTAISKMTRGLDYYEVMGLTRSANDIDIRRAYRRLALKYHPDINKDGAAGDEFLRICEAYEVLCDPKTKGFYDLYGEDALKDGISDGNGGLKGPMYRFNPEESPKAVFERFFGTANPYEALEALSNQFESMTSEEAPARGKNKVYPLELTLEEIFHGCLKKVAHKRKVLLFSGEYVEEERQLTVDVKPGLPTGTRFVFEGEGNKTPKKEPGPVVFVLKPKPHPRFVRRGSDLVHKVTLPLHHALIGTTLDIRTLDDRDLKVPISDIMRPGSSLTVPGEGMPLPATPSARGNLVIEIDLLFPTHLTETQKMLLRSAFFLPPPTEQNEETKKALRDYEAAFKHDLKGWATVFKRL | not soluble
MGSDKIHHHHHHMERSDAAMQPDAVSRPEIVMATRGITMLFPGTKALDNVDYNVYRGKVNVIIGENGAGKSTLMKILAGVQQPTSGQILLNGEAVRIADTRDAAAKGIGMVHQELNLSENLSVAENIFLGRELQKGVAPIDYLEQERIAAELMSRLDQAISPRTEVASLKVGQQQLVEIAKALADQADILILDEPTSALSKTEVEILFRVIRELTRQNVSIIYISHRLEELMAIGDYITILRDGCFQAEAAVSDIDVPWIVREMLGGDPVTSFLHSGRTFGAPILEAEHLTCLNDAGHQVVNDVSLMVREGEIVGIYGLMGAGRTELFECLLGIQNDYLGKIYLDSKPVSPRLSTAQRIRMGMSLVPEDRKKTGIFPLSSVASNLTIASLWRRLKYGMAIFQRQEQEVVASTVGRLAIKVSSPEVEIQALSGGNQQKVVIGRSLLTSPKVLLLDEPTRGIDVGAKADVFEMMVGLSEQGIGVLFSTSDLKEIMAVSDRILVMSNGKLTANIVRQSASESALVSASAQGF | not soluble
SNAMKVINVDVAIIGTGTAGMGAYRAAKKHTDKVVLIEGGAYGTTCARVGCMPSKLLIAAADASYHASQTDLFGIQVDRISVNGKAVMKRIQTERDRFVGFVVESVESFDEQDKIRGFAKFLDEHTLQVDDHSQVIAKRIVIATGSRPNYPEFLAAAGSRLLTNDNLFELNDLPKSVAVFGPGVIGLELGQALSRLGVIVKVFGRSGSVANLQDEEMKRYAEKTFNEEFYFDAKARVISTIEKEDAVEVIYFDKSGQKTTESFQYVLAATGRKANVDKLGLENTSIELDKKNSPLFDELTLQTSVDHIFVAGDANNTLTLLHEAADDGKVAGTNAGAYPVIAQGQRRAPLSVVFTEPQVASVGLSLRQIEDLYADQDAANYVVGQVSFEGQGRSRVMGKNKGLLNVYADRTSGEFLGAEMFGPAAEHIGHLLAWARQQQMTVQAMLTMPFYHPVIEEGLRTALRDAQQKLAIEKHDMNEFIMTHDNAMKLVI | soluble
MGSDKIHHHHHHMKRTVTVKLQPSKAQEETLKELAIISSKAWNKVNYLRRQEFFEGKPVDFLKTEKIVYEEFKSEIGSATVQQICRKNADAWRSFFSLIRSKRNGELPKWFKPKPPEYVKEGGLIILRNDQYKIEGNKLILKGLGKFKRLEVQFKGRIHLKGKQGKLEITYDPIKRKWYAHISYTVKEKLYGGEWVEVPRQPLGNLSAGIDLGVNNLMAVYVENGESFLVNGRPLKSIDFYWRERIADYQSKLNKSGAKKSRKLSRMHEKAKLQAKHYINTAVRQTVERLYHLGVSRIVVGYPKGISRNSNRGKKQNYLLSHVWRFNYVIKRLREVAEEYGIQVLIVDEAFTSKLCPVCGKPHKGQGLFEDYLSVPRRGLPLMPTWLELSTF | not soluble
MNPNPNVKYPIEGNQNVHFIKNTITKANILVGDYSYYDAKDGETFEDRVLHHYEFLGDRLIIGKFCCIASGVTFIMNGANHRMDGFSAYPFNIFGNGWEKYTPNLSDLPYKGDTVIGNDVWIGMDATIMPGIKIGDGAIIAAKSVVTRDVAPYTIVGGNPANKIRERFSNAIIEELLQIQWWHFDIEKITENIGAIVQGNIEPLRKLKRE | not soluble
GPHMSVSESAVFAYESSVHSTNVLLSLNDQRKKDVLCDVTVLVEGQRFRAHRSVLAACSSYFHSRIVGQTDAELTVTLPEEVTVKGFEPLIQFAYTAKLILSKDNVDEVCRCVEFLSVHNIEESCFQFLKFKFLDSTS | soluble
MTFALGQRWISDTESDLGLGTVVAMDARTVTLMFAASEENRVYARNDAPVTRVTFNVGDVIDCQEGWSLKVEEVLEDEGLYTYFGTREDTQETAVVLREIFLSNQIRFNKPQDKLYAGQIDRMDNFVLRY | not soluble

Source: the DeepSol protein solubility set
